Laboratory results from paper doi:10.1101/791277 (2019).
Where no end group is shown, it is not given here. [ ]: non-standard residue; d: D form. The star is where a group is joined. 5FAM = O=C1OC2(c3ccc(O)cc3Oc3cc(O)ccc32)c2ccc(C(=O)*)cc21; pY = N[C@@H](Cc1ccc(OP(=O)(O)O)cc1)C(=O)O

How the values were obtained:
Experiment in all cases: FP
p85α nSH2 (325-430) = p85α nSH2 (325-430) (human, UniProt P27986 325-430)
p85β nSH2 (312-425) = p85β nSH2 (312-425) (mouse, UniProt O08908 312-425)
p85α cSH2 (614-720) = p85α cSH2 (614-720) (human, UniProt P27986 614-720)
p85β cSH2 (603-712) = target: T1, p85β cSH2 (603-712) (mouse, UniProt O08908 603-712)
T1 chain: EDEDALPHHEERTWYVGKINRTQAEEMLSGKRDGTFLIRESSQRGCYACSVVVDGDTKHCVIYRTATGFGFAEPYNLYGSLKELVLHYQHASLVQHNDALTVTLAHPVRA

p85α nSH2 R358M = p85α nSH2 R358M (human, UniProt P27986 325-430, R358M)
p85α nSH2 R358M, sequence (P27986 325-430 R358M): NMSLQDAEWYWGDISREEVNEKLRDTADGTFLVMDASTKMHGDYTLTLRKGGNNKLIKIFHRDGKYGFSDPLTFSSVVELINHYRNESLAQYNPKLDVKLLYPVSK

p85α cSH2 (614-720), sequence (P27986 614-720): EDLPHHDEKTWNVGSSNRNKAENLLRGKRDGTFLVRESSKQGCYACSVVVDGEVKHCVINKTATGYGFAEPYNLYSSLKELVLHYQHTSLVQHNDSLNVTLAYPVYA
p85β nSH2 (312-425), sequence (O08908 312-425): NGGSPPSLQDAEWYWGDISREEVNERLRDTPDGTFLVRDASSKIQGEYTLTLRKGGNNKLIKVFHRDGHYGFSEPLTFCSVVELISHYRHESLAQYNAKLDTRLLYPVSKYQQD
p85α nSH2 (325-430), sequence (P27986 325-430): as the sequence (P27986 325-430 R358M) above, with M34R counted along it

Row | Binder | Kd (p85α nSH2 (325-430)) [nM] | Kd (p85β nSH2 (312-425)) [nM] | Kd (p85α cSH2 (614-720)) [nM] | Kd (p85β cSH2 (603-712)) [nM] | Kd (p85α nSH2 R358M) [nM]
1 | 5FAM-TEDQ[pY]SLVEDE [p85α pY607 peptide, [5-FAM]-TEDQ-[pY]-SLVEDE] | 2400 | 9000 | 84000 |  | 
2 | 5FAM-SD[pY]MNMTP [CD28 peptide, [5-FAM]-SD-[pY]-MNMTP] |  |  | 43 | 100 | 
3 | 5FAM-TEDQ[pY]SLMEDE [p85β pY607 peptide, [5-FAM]-TEDQ-[pY]-SLMEDE] | 82 | 52 | 656 |  | 2900
